Data taken from paper PMC8096781.

Molecular target: endogenous PKM2 (HeLa cells) (human (endogenous in HeLa)) (UniProt P14618)
Test: SEC; gel chromatography (Superdex 200, cold PBS, 4 °C, 0.3 mL/min) of extracts of HeLa cells with vector, FOXM1A or FOXM1D; fractions analysed by western blot

Sequence of endogenous PKM2 (HeLa cells), P14618 1-531 (enzyme; other documents disagree on this pair) (P14618 whole entry): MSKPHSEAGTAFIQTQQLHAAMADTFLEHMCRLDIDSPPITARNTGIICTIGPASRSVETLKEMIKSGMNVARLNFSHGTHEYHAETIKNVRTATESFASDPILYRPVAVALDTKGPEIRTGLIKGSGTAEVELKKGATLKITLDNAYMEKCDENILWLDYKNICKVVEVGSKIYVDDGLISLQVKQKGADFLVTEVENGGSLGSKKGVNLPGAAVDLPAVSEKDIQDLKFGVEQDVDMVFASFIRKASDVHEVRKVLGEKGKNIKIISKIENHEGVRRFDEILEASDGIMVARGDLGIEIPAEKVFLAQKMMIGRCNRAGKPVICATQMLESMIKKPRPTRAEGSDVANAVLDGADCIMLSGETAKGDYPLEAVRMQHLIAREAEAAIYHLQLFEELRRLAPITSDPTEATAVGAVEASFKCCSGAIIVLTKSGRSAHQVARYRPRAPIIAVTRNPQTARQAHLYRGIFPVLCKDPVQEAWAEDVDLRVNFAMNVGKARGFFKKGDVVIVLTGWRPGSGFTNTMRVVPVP

stoichiometry N: 2
Substance: endogenous PKM2 (HeLa cells), P14618 1-531 (enzyme; other documents disagree on this pair)
